The target of this experiment is T1, chimeric CNTF receptor (human CNTF receptor expressed in chimeric LIF receptor cell line LIG) in Ba/F3 cell line CNG (Homo sapiens, UniProt P26992+P40189+P42702).
T1 construct: from the 1st to the 372nd amino acid residues; expressed in transfected cells; host or cells: Ba/F3-derived cell line LIG transfected with pCV-CNTFR, clone CNG#203 = CNG
Kind of experiment: Growth response of chimeric CNTF receptor-expressing Ba/F3 cell line CNG (WST-8). Conditions: 72 hours culture, WST-8 absorbance. In kind it is cell-based. The text has this:
Human CNTF receptor (from the 1st to the 372nd amino acid residues; Davis, S. et al. (1991) Science, 253, 59-63) cDNA was cloned downstream of the HEF1α promoter of a mammalian expression vector, pCV, to construct human CNTF receptor (CNTFR) expression vector, pCV-CNTFR. pCV-CNTFR was linearized with Pvu I (Takara Shuzo), extracted with phenol and chloroform, and purified by ethanol precipitation.
The linearized expression gene vector was introduced into the chimeric LIF receptor-expressing cell line LIG (see section 1-13) using an electroporation apparatus (Gene Pulser: Bio Rad). The LIG cells were washed twice with Dulbecco's PBS (hereinafter referred to as PBS), and then were suspended in PBS to give a cell density of about 1×10^7 cells/mL. […]
The cells were washed twice with Media A, and were suspended in Media A to give a cell density of 5×10^4 cells/mL. […] After the culture, 10 μL/well WST-8 reagent (Cell Count Reagent SF; Nacalai Tesque) was added, and pre-reaction absorbance at a measurement wavelength of 450 nm and a control wavelength of 655 nm was measured using microplate reader (Model 3550, Bio Rad). The plate was incubated for two hours in a CO2 incubator (CO2 concentration, 5%), and post-reaction absorbance was measured as above. […]
On the technique in general: Formazan colour is commonly taken as a measure of viable cells.

T1 sequence (P26992 23-372, change not shown): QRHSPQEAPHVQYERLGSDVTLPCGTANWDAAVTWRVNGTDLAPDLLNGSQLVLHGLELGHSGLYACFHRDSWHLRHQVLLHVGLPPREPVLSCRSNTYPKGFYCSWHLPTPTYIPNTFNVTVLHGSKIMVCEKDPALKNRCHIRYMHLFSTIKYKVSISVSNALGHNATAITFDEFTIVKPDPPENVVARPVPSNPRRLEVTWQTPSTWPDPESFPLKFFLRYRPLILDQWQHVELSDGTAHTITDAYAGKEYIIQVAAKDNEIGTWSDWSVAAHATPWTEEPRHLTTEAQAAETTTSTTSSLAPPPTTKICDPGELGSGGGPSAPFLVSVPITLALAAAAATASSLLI
T1 sequence (P42702 45-833, change not shown): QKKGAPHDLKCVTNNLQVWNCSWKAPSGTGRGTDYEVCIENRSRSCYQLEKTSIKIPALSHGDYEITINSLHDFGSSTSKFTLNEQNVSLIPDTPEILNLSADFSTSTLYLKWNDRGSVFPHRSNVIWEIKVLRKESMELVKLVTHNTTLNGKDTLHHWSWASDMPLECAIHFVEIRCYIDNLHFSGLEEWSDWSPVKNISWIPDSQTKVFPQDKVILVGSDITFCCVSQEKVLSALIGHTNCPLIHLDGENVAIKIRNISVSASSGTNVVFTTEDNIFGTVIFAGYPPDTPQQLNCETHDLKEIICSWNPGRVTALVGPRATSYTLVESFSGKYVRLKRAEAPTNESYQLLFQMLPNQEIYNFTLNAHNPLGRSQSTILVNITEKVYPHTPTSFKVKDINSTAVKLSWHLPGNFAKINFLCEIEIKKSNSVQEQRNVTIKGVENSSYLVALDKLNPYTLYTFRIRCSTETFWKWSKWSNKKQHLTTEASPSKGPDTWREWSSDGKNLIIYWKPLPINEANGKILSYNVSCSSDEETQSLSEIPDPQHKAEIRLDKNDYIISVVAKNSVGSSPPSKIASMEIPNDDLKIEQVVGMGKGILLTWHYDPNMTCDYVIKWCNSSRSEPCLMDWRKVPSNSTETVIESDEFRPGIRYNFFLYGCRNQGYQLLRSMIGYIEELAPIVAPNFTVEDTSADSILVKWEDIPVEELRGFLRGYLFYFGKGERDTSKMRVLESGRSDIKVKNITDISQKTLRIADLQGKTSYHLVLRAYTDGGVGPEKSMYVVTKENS
T1 sequence (P40189 23-619, change not shown): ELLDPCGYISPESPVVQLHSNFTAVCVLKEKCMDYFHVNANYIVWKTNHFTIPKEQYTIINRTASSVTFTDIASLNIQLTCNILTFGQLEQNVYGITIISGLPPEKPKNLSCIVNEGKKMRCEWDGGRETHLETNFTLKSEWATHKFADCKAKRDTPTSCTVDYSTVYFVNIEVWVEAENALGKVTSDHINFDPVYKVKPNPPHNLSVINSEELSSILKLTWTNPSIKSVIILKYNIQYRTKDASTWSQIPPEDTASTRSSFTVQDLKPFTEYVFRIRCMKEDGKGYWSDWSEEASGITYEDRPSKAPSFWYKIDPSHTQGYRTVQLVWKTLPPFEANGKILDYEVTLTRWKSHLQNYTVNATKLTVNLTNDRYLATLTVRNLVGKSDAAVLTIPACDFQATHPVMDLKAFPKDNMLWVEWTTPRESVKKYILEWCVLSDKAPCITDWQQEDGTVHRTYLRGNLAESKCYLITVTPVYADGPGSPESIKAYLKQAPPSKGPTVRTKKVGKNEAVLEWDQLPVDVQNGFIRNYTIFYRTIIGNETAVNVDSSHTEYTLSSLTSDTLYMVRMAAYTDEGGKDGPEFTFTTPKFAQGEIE
T1 sequence (P40223 627-837 partner limits assumed): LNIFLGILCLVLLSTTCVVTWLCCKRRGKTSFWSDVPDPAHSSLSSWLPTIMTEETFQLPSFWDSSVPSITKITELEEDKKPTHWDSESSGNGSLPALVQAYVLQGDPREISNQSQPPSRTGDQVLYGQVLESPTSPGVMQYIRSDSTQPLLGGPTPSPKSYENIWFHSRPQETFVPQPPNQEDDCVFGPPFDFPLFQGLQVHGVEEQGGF

B1: human CNTF: human ciliary neurotrophic factor (Genzyme) (protein, UniProt P26441 1-200, looked up)
Ciliary neurotrophic factor: MAFTEHSPLTPHRRDLCSRSIWLARKIRSDLTALTESYVKHQGLNKNINLDSADGMPVASTDQWSELTEAERLQENLQAYRTFHVLLARLLEDQQVHFTPTEGDFHQAIHTLLLQVAAFAYQIEELMILLEYKIPRNEADGMPINVGDGGLFEKKLWGLKVLQELSQWTVRSIHDLRFISSHQTGIPARGSHYIANNKKM
For the molecule B1, the “concentration at which an evident growth reaction was observed” value was no less than 0.3 ng/mL.

Source of the values: US7732133B2, “Screening methods for biologically active ligands” (Chugai Seiyaku Kabushiki Kaisha, priority 2000, dated 2010).
